Reference: patent US20120269834A1, “IMMUNOGLOBULIN CLEAVAGE FRAGMENT VACCINE COMPOSITIONS” (priority 2010, published 2012)

Assays:
[1] = test system: platelets; assay: circulating platelet counts in dogs; format: in vivo, dog; conditions: for platelet clearance: dose finding
Experimental: First, the c7E3 antibody antigen binding and platelet depletion parameters were established in dogs.
c7E3 IgG and c7E3 IgG single-cleaved by IdeS protease were also compared in vivo. Three groups of 5 animals received either saline control, intact c7E3 IgG (0.05 mg/kg) or c7E3 single-cleaved IgG (0.05 mg/kg). Platelet counts were monitored at baseline and at 2, 24, 48, 72 and 96 hours post-administration. Limiting the study to 5 days minimized the likelihood of anti-c7E3 immune responses that might confound the interpretation of the results. The results are presented in FIG. 3 as the mean platelet count±SD for each animal group at each time point. The extent of the error bars connotes the normal variability of platelet counts in different animals (for example, the predose counts for the 5 animals in the single-cleaved IgG treatment group were 175,000, 355,000, 305,000, 276,000 and 334,000 per μL, respectively).
To be consistent with the prior experiments, the variants of c7E3 were all administered at the 0.05 mg/kg dose. The unique aspect of the experiment (groups 6 and 7) involves the infusion of the first targeting mAb followed by the cleavage site specific mAb after a 10 minute delay. The cleavage site specific IdeS cleavage site mAb, 2095-2, was administered at 0.5 mg/kg; 10-fold higher than the dose used for all of the c7E3 variants. The higher dose was chosen in order to maximize the complexation of cleavage site specific mAb with platelet-bound c7E3 variants. All mAbs were delivered by slow infusion over a 20 minute period. Platelet counts were monitored over a 96-hour period. The platelet counts were normalized to the pre-dose count within each animal for clarity of presentation and to minimize the normal variability in numerical platelet counts in these small 3-animal groups.

[2] = test system: platelets; assay: circulating platelet counts in dogs; format: in vivo, dog; conditions: dose finding
[3] = target: human IgG1 (Homo sapiens, UniProt P01857); assay: action of human and bacterial proteases on human IgG1 (Table 1); format: biochemical; conditions: for Major Product: None = no detectable cleavage in 24 hours; for Cleaved Site: human IgG1 heavy chain, EU numbering
Sequence of human IgG1 (P01857 1-330 isoform P01857-1, other chains not shown): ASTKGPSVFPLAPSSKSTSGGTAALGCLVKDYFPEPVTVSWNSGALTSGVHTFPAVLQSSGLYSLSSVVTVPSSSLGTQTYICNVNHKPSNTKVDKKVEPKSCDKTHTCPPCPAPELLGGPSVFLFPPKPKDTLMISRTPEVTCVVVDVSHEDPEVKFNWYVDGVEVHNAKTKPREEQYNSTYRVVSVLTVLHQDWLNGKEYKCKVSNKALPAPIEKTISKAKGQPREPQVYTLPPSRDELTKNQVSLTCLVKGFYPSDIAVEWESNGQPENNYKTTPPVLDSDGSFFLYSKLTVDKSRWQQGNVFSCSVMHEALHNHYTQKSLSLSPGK
Experimental: Table 1 is a summary of the findings concerning the action of human proteases and two bacterial proteases on human IgG1. The term “Coagulation proteinases” refers to serum coagulation cascade proteins including; FXIIa, FIXa, FXa, thrombin and activated protein C; plasmin was plasminogen co-incubated with plasminogen activators; tPA, streptokinase and staphylokinase; “plasminogen activators alone” are without plasminogen; and the MMPs were recombinant proteinases obtained either as the active form or the pro-enzyme as detailed in the Materials; and “None” denotes no detectable cleavage in 24 hours. Except where indicated all enzymes where human. The residue designations are for the EU numbering system for the IgG1 antibody heavy chain where the 25 residues of SEQ ID NO: 1 corresponds to residues 219 through 243 of the complete mature heavy chain.

[4] = FIG. 12 study, groups of 3 animals, c7E3 variants 0.05 mg/kg, 2095-2 0.5 mg/kg

B1: c7E3 IgG: anti-platelet integrin (αIIbβIIIa) murine-human IgG1 chimeric antibody (antibody, chains of the INN, looked up, V domains shown)
VH: EVQLQQSGTVLARPGASVKMSCEASGYTFTNYWMHWVKQRPGQGLEWIGAIYPGNSDTSYIQKFKGKAKLTAVTSTTSVYMELSSLTNEDSAVYYCTLYDGYYVFAYWGQGTLVTVSA
VL: EIVLTQSPVTLSVTPGDSVSLSCRASRDISNNLHWFQQTSHESPRLLIKYASQSMSGIPSRFSGSGSGTDFTLSINSVETEDFGMYFCQQTNSWPYTFGGGTKLEIK
modifications: IgG1
notes: anti-platelet integrin (αIIbβIIIa) murine-human IgG1 chimeric antibody
[1]; 0.05 mg/kg, by 96 hours
  platelet count recovery: approximately 50 % of the pre-dose level
[1]; 0.05 mg/kg, groups of 5 animals
  time of platelet nadir: 24 h
[1]; 0.05 mg/kg, groups of 5 animals, monitored to 96 hours
  effect on platelet numbers: substantial decrease
[1]; FIG. 12 study, 0.05 mg/kg
  start of recovery of platelet numbers: approximately 72 hours
  time of platelet nadir: 24 to 48 h
[1]; [4]
  effect on platelet numbers: substantial platelet clearance
[1]; after 24 hours, recovery over 5 days
  platelet clearance in pilot study: profound platelet clearance
[1]; calculated for the 0.05 mg/kg dose
  αIIβ3 receptor blockade: about 5%
[1]; 0.05 mg/kg, 2 hours
  platelet clearance: little effect
[1]; 0.05 mg/kg, 24 hours
  platelet clearance: > 90%
[1]; doses >0.05 mg/kg
  time to platelet clearance: ≤ 24 h
[2]; 0.01 mg/kg, 2 and 24 hours
  platelet clearance: ineffective
[2]; 0.2 mg/kg, at 2 hours, maintained at 24 hours
  platelet clearance: profound platelet clearance

B2: c7E3 F(ab′)2: F(ab′)2 of c7E3 prepared using the bacterial enzyme IdeS (antibody, chains of the INN, looked up, V domains shown)
VH: B1 VH
VL: B1 VL
modifications: F(ab')2 IdeS-generated
notes: F(ab′)2 of c7E3 prepared using the bacterial enzyme IdeS
[1]; [4]
  effect on platelet numbers: without effect

B3: Proteinase 3: human protease (protein, UniProt P24158 28-248, looked up)
Myeloblastin: IVGGHEAQPHSRPYMASLQMRGNPGSHFCGGTLIHPSFVLTAAHCLRDIPQRLVNVVLGAHNVRTQEPTQQHFSVAQVFLNNYDAENKLNDVLLIQLSSPANLSASVATVQLPQQDQPVPHGTQCLAMGWGRVGAHDPPAQVLQELNVTVVTFFCRPHNICTFVPRRKAGICFGDSGGPLICDGIIQGIDSFVIWGCATRLFPDFFTRVALYVDWIRSTLR
[3]
  Major Product: None

B4: Chymase: human protease (protein, UniProt P23946 22-247, looked up)
Chymase: IIGGTECKPHSRPYMAYLEIVTSNGPSKFCGGFLIRRNFVLTAAHCAGRSITVTLGAHNITEEEDTWQKLEVIKQFRHPKYNTSTLHHDIMLLKLKEKASLTLAVGTLPFPSQFNFVPPGRMCRVAGWGRTGVLKPGSDTLQEVKLRLMDPQACSHFRDFDHNLQLCVGNPRKTKSAFKGDSGGPLLCAGVAQGIVSYGRSDAKPPAVFTRISHYRPWINQILQAN
[3]
  Major Product: None

B5: Plasmin: plasminogen co-incubated with plasminogen activators (protein, UniProt P00747 20-580; P00747 581-810, looked up)
Plasmin heavy chain A: EPLDDYVNTQGASLFSVTKKQLGAGSIEECAAKCEEDEEFTCRAFQYHSKEQQCVIMAENRKSSIIIRMRDVVLFEKKVYLSECKTGNGKNYRGTMSKTKNGITCQKWSSTSPHRPRFSPATHPSEGLEENYCRNPDNDPQGPWCYTTDPEKRYDYCDILECEEECMHCSGENYDGKISKTMSGLECQAWDSQSPHAHGYIPSKFPNKNLKKNYCRNPDRELRPWCFTTDPNKRWELCDIPRCTTPPPSSGPTYQCLKGTGENYRGNVAVTVSGHTCQHWSAQTPHTHNRTPENFPCKNLDENYCRNPDGKRAPWCHTTNSQVRWEYCKIPSCDSSPVSTEQLAPTAPPELTPVVQDCYHGDGQSYRGTSSTTTTGKKCQSWSSMTPHRHQKTPENYPNAGLTMNYCRNPDADKGPWCFTTDPSVRWEYCNLKKCSGTEASVVAPPPVVLLPDVETPSEEDCMFGNGKGYRGKRATTVTGTPCQDWAAQEPHRHSIFTPETNPRAGLEKNYCRNPDGDVGGPWCYTTNPRKLYDYCDVPQCAAPSFDCGKPQVEPKKCPGR
Plasmin light chain B: VVGGCVAHPHSWPWQVSLRTRFGMHFCGGTLISPEWVLTAAHCLEKSPRPSSYKVILGAHQEVNLEPHVQEIEVSRLFLEPTRKDIALLKLSSPAVITDKVIPACLPSPNYVVADRTECFITGWGETQGTFGAGLLKEAQLPVIENKVCNRYEFLNGRVQSTELCAGHLAGGTDSCQGDSGGPLVCFEKDKYILQGVTSWGLGCARPNKPGVYVRVSRFVTWIEGVMRNN
modifications: plasmin
[3]
  Major Product: Fab + Fc
  Cleaved Site: Lys^223-

B6: Macrophage metalloelastase (MMP-12): recombinant human MMP (protein, UniProt P39900 106-470, looked up)
Macrophage metalloelastase: GPVWRKHYITYRINNYTPDMNREDVDYAIRKAFQVWSNVTPLKFSKINTGMADILVVFARGAHGDFHAFDGKGGILAHAFGPGSGIGGDAHFDEDEFWTTHSGGTNLFLTAVHEIGHSLGLGHSSDPKAVMFPTYKYVDINTFRLSADDIRGIQSLYGDPKENQRLPNPDNSEPALCDPNLSFDAVTTVGNKIFFFKDRFFWLKVSERPKTSVNLISSLWPTLPSGIEAAYEIEARNQVFLFKDDKYWLISNLRPEPNYPKSIHSFGFPNFVKKIDAAVFNPRFYRTYFFVDNQYWRYDERRQMMDPGYPKLITKNFQGIGPKIDAVFYSKNKYYYFFQGSNQFEYDFLLQRITKTLKSNSWFGC
[3]
  Major Product: F(ab′)2 +
  Cleaved Site: Pro^232-

B7: Cathepsin S: human cysteine endopeptidase (protein, UniProt P25774 115-331, looked up)
Cathepsin S: LPDSVDWREKGCVTEVKYQGSCGACWAFSAVGALEAQLKLKTGKLVSLSAQNLVDCSTEKYGNKGCNGGFMTTAFQYIIDNKGIDSDASYPYKAMDQKCQYDSKYRAATCSKYTELPYGREDVLKEAVANKGPVSVGVDARHPSFFLYRSGVYYEPSCTQNVNHGVLVVGYGDLNGKEYWLVKNSWGHNFGEEGYIRMARNKGNHCGIASFPSYPEI
[3]
  Major Product: None
